{
  "source": "paper doi:10.1101/2020.05.05.078014",
  "target": "T1, Rhed (RNA-binding heme domain of DGCR8), heme-bound (Homo sapiens, UniProt Q8WYQ5 285-478)",
  "T1 sequence": "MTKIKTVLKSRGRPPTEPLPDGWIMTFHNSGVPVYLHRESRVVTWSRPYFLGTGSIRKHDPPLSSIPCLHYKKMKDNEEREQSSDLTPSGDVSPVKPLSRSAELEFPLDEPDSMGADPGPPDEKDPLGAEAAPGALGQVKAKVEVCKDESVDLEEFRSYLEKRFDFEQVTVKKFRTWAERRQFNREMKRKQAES",
  "experiment": "EMSA",
  "data": [
    {"binder": "GGAGACUGAUUGUCAUAUGUCGUUUGUGGGAUCCGUCUCC (structured_RNA)", "note": "[pri-miR-340 apical stem-loop fragment]", "values": [
      {"measurement": "Kd", "result": 3.5, "unit": "µM"}
    ]}
  ]
}
